From the supplement of paper PMC9170038

Test system: MS2 coat protein
Assay: apparent KD of MS2 coat protein; designed switch direction (-1 OFF switch, 1 ON switch): -1; higher = weaker reporter binding
In short: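 Apparent KD, taken as the median over clusters for each design, was obtained by curve-fitting normalised cluster fluorescence. Designed RNA switches had been transcribed on Illumina chips by stalled E. coli RNA polymerase and titrated with SNAP-549-labelled MS2 coat protein, doubling from 0.7 or 1.5 nM to 3 µM.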

[1] = Eterna round: R95, input ligand: FMN 200 uM
[2] = Eterna round: R95, input ligand: microRNA oligo, concentration not stated
[3] = Eterna round: R95, input ligand: none
[4] = input ligand: microRNA oligo, concentration not stated

Row | Sequence | apparent KD of MS2 coat protein (input ligand: FMN 200 uM) | apparent KD of MS2 coat protein (input ligand: none) | apparent KD of MS2 coat protein [1] | apparent KD of MS2 coat protein [2] | apparent KD of MS2 coat protein [3] | apparent KD of MS2 coat protein [4]
1 | GCUGGUCGAGGAUAUACAUGAGGAUCACCCAUGUAGAUCAACCAGCGAUAGCUGGAAUGUAGAAGGCGACCAGC [E3/5-A1] (Eterna round: R97, puzzle: Exclusion 3) | 125 nM | 22.9 nM |  |  |  | 
2 | GCUGGUCGAGGAUAUACAUUCGUGCUUCGGCACGUAAGGUCACAUGAGGAUCACCCAUGUAGAAGGCGACCAGC [E2/7-A1] (Eterna round: R97, puzzle: Exclusion 2) | 258 nM | 42.2 nM |  |  |  | 
3 | GCUGGUCGAGGAUAUGCAAUCGUGCUUCGGCACGUAAGGUCACAUGAGGAUCACCCAUGUAGAAGGCGACCAGC [E2/4-A1] (Eterna round: R97, puzzle: Exclusion 2) | 32.5 nM | 19.2 nM |  |  |  | 
4 | GCUUGAGCAGGAUAUACAUGAGGAUCACCCAUGUGCUUGAGCUUGAUCGAGUUCGAGUGUAGAAGGGUUCGAGU [-26.9, -23.9 kcal, 24% A, 1 bis, 1 bis] (Eterna round: R97, puzzle: Exclusion 3) | 20.8 nM | 19.7 nM |  |  |  | 
5 | GCUUGUAGAGGAUAUACGAGGGCCCGAGCGGAUAACACCGCACAUGAGGAUCACCCAUGUAGAAGGCUACUACC [JL-ex2-4.17 ViennaUCT mod] (Eterna round: R97, puzzle: Exclusion 2) | 495 nM | 92.3 nM |  |  |  | 
6 | GCUUUUCUUUUCCUUUCUUACAUGAGGAUCACCCAUGUUUCUUGUCGUCCUCGCGUUGCUCGUCUGUCUGUCUGUUG [salish99_TOv1_r3_078] (puzzle: Sensor v3, turn-off variant 1) |  |  | 97.8 nM | 135 nM | 95.9 nM | 
7 | GCUUUUGGGCAAGGAUAUCCUGCGCUGUUCUGGUUCGUGUCUGUCACAUGAGGAUCACCCAUGUGGGAGAAGGUGCCUGUGGUG [Design 70] (Eterna round: R96, puzzle: Exclusion NG 2) | 17 nM | 19.2 nM |  |  |  | 14.7 nM
8 | GGAAAACAUGAGGAUCACCCAUGUAAGGAUAUGCAAAAGGAUAUAGAAGGAAAAAAAAGCAGAAGGUACAAAGG [salish99-ex1-21] (Eterna round: R96, puzzle: Exclusion 1) |  |  |  |  |  | 34 nM
9 | GGAAAACAUGAGGAUCACCCAUGUAAGGAUAUGCAAAAGGAUAUAGAAGGAAAAAAAAGCAGAAGGUACAAAGG [salish99-ex1_r3_094] (puzzle: Exclusion 1) |  |  | 132 nM | 36.3 nM | 32.8 nM | 
10 | GGAAAACAUGAGGAUCACCCAUGUAAGGAUAUGCAAAAGGAUAUAGAAGGAAUAAAAAGCAGAAGGUACAAAGG [salish99-ex1_r3_096] (puzzle: Exclusion 1) |  |  | 116 nM | 45.7 nM | 66.6 nM | 
11 | GGAAACCGAGGAUAUCAGUACACGCACAUGAGGAUCACCCAUGUGCUCCUGGGUGCUGUCUGAGAAGGCGGUGAGA [Quan] (Eterna round: R97, puzzle: Exclusion 5) | 648 nM | 1620 nM |  |  |  | 
12 | GGAAAGCAAGGAUAUACAAGUAAACGACGGAAAGUAGAGAGACAUGAGGAUCACCCAUGUAGAAGGUGCGAGAG [JR_Exclu2_Sub035] (puzzle: Exclusion 2) |  |  | 19 nM | 26.9 nM | 20.1 nM | 
13 | GGAAAGCAAGGAUAUACGAGGAGAAGGAGGAAAGUAAAAGGACAUGAGGAUCACCCAUGUAGAAGGUGCGAGAG [JR_Exclu2_Sub040] (puzzle: Exclusion 2) |  |  | 27.6 nM | 29.7 nM | 32.9 nM | 
14 | GGAAGACAUGAGGAUCACCCAUGUAAGGAUAUCGAAGGUAAGAGAGGAAAGAAGGGAACGAGAAGGUACAGGUG [JR_Exclu1_Sub095] (puzzle: Exclusion 1) |  |  | 102 nM | 88.9 nM | 123 nM | 
15 | GGAAGCAAGGAAUAACUAAACAUGAGGAUCACCCAUGUAGAGCCCAUGUGCACGCAAAGCGUGCAAGCUCGUCUUAU [AK-miRNA-r3-17] (Eterna round: R97, puzzle: Sensor, turn-off variant 1) | 64.4 nM | 80.8 nM |  |  |  | 
16 | GGAAGGAGUGUAAGGAUAUCCUCCUCGAAAGAGGAGGAGAAGGUACAUGAGGAUCACCCAUGUAGAGGAGGAGG [AK-MS2ROC-r4-Bmoexclusion4-10.1] (Eterna round: R97, puzzle: Brourd's mod of Exclusion 4) | 73.6 nM | 35.7 nM |  |  |  | 
